Test results reported in publication PMC7027807.

Molecular target: CP-His-CP MS2 dimer (bacteriophage MS2)
Assay: cryo-EM structure; large particles (~330 Å) of the same CP-His-CP sample; icosahedral T = 4 reconstruction at 6 Å, x100k and x150k datasets together; coat protein dimers of PDB 5TC1 fitted as rigid bodies

stoichiometry N (coat proteins): 240
Substance: CP-His-CP MS2 dimer
